Residue numbers refer to the chain shown, from its start. Names and notes keep the numbering of the source.
T1: recombinant human activated Factor VII (FVIIa) (human, UniProt P08709 61-212; P08709 213-466, ten glutamate residues of the Gla domain may be gamma-carboxylated)
T1 construct: chains tethered by a disulfide bond; also called Factor VIIa; rFVIIa
T1 sequence 1: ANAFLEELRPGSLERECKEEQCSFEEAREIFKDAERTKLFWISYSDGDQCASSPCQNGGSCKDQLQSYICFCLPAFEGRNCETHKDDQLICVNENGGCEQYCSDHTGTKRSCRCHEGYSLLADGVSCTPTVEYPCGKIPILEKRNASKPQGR
T1 sequence 2: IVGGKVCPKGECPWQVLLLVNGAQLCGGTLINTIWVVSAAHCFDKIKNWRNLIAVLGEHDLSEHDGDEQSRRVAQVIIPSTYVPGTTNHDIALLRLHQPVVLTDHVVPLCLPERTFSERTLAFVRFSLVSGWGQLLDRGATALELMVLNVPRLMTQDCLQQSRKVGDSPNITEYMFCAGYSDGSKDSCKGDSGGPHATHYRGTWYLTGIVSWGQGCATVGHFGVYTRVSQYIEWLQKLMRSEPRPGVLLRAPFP

B1: VH SEQ ID NO 618 / VL SEQ ID NO 486 (antibody, IgG4, V domains shown)
VH: QVQLQESGPGLVKPSQTLSLTCTVSGYSISSDSAWSWIRQFPGKGLEWIGYIQYSGSTNYNPSLKSRVTISRDTSKNQFSLKLSSVTAADTAVYYCARSVNYYGNSFAVGPWGQGTLVTVSS
VL: EIVLTQSPATLSLSPGERATLSCRASQGVSDYLHWYQQKPGQAPRLLIKYASQPATGIPARFSGSGSGTDFTLTISSLEPEDFGVYYCQNGHSFPLTFGQGTKLEIK
notes: humanized 11F2; IgG4 S228P/kappa
B2: VH SEQ ID NO 634 / VL SEQ ID NO 446 (antibody, IgG4, V domains shown)
VH: B1 VH with F41P, P111Y
VL: B1 VL with H34A, A51T, G84A
notes: as for B1
B3: VH SEQ ID NO 626 / VL SEQ ID NO 318 (antibody, IgG4, V domains shown)
VH: B1 VH with F41P
VL: B1 VL with V29I, Q42E, A51T, G84A
notes: as for B1
B4: VH SEQ ID NO 626 / VL SEQ ID NO 494 (antibody, IgG4, V domains shown)
VH: B1 VH with F41P
VL: B1 VL with F83V, G84A
notes: as for B1
B5: VH SEQ ID NO 618 / VL SEQ ID NO 502 (antibody, IgG4, V domains shown)
VH: B1 VH
VL: B1 VL with A51T, G84A
notes: as for B1
B6: VH SEQ ID NO 626 / VL SEQ ID NO 398 (antibody, IgG4, V domains shown)
VH: B1 VH with F41P
VL: B1 VL with H34A, Q42E, A51T, G84A
notes: as for B1
B7: VH SEQ ID NO 634 / VL SEQ ID NO 342 (antibody, IgG4, V domains shown)
VH: B1 VH with F41P, P111Y
VL: B1 VL with V29I, A51T, T69R, G84A, Q100A, I106L
notes: as for B1
B8: VH SEQ ID NO 634 / VL SEQ ID NO 390 (antibody, IgG4, V domains shown)
VH: B1 VH with F41P, P111Y
VL: B1 VL with H34A, Q42E, G84A
notes: as for B1
B9: VH SEQ ID NO 626 / VL SEQ ID NO 446 (antibody, IgG4, V domains shown)
VH: B1 VH with F41P
VL: B1 VL with H34A, A51T, G84A
notes: as for B1
B10: VH SEQ ID NO 634 / VL SEQ ID NO 358 (antibody, IgG4, V domains shown)
VH: B1 VH with F41P, P111Y
VL: B1 VL with V29I, A51T, G84A
notes: as for B1
B11: VH SEQ ID NO 626 / VL SEQ ID NO 462 (antibody, IgG4, V domains shown)
VH: B1 VH with F41P
VL: B1 VL with G84A, Q100A
notes: as for B1
B12: VH SEQ ID NO 634 / VL SEQ ID NO 350 (antibody, IgG4, V domains shown)
VH: B1 VH with F41P, P111Y
VL: B1 VL with V29I, A51T, G84A, Q100A, I106L
notes: as for B1
B13: VH SEQ ID NO 626 / VL SEQ ID NO 310 (antibody, IgG4, V domains shown)
VH: B1 VH with F41P
VL: B1 VL with V29I, H34A, G84A
notes: as for B1
B14: VH SEQ ID NO 634 / VL SEQ ID NO 398 (antibody, IgG4, V domains shown)
VH: B1 VH with F41P, P111Y
VL: B1 VL with H34A, Q42E, A51T, G84A
notes: as for B1
B15: VH SEQ ID NO 626 / VL SEQ ID NO 486 (antibody, IgG4, V domains shown)
VH: B1 VH with F41P
VL: B1 VL
notes: as for B1
B16: VH SEQ ID NO 626 / VL SEQ ID NO 326 (antibody, IgG4, V domains shown)
VH: B1 VH with F41P
VL: B1 VL with V29I, Q42E, A51T, Q100A, I106L
notes: as for B1
B17: VH SEQ ID NO 634 / VL SEQ ID NO 454 (antibody, IgG4, V domains shown)
VH: B1 VH with F41P, P111Y
VL: B1 VL with Q42E, G84A
notes: as for B1
B18: VH SEQ ID NO 634 / VL SEQ ID NO 406 (antibody, IgG4, V domains shown)
VH: B1 VH with F41P, P111Y
VL: B1 VL with H34A, G84A, Q100A
notes: as for B1
B19: VH SEQ ID NO 626 / VL SEQ ID NO 422 (antibody, IgG4, V domains shown)
VH: B1 VH with F41P
VL: B1 VL with H34A, G84A, N90Q
notes: as for B1
B20: VH SEQ ID NO 634 / VL SEQ ID NO 430 (antibody, IgG4, V domains shown)
VH: B1 VH with F41P, P111Y
VL: B1 VL with H34A
notes: as for B1
B21: VH SEQ ID NO 626 / VL SEQ ID NO 478 (antibody, IgG4, V domains shown)
VH: B1 VH with F41P
VL: B1 VL with G84A, N90Q
notes: as for B1
B22: VH SEQ ID NO 634 / VL SEQ ID NO 382 (antibody, IgG4, V domains shown)
VH: B1 VH with F41P, P111Y
VL: B1 VL with V29L, Q42E, G84A
notes: as for B1
B23: VH SEQ ID NO 634 / VL SEQ ID NO 366 (antibody, IgG4, V domains shown)
VH: B1 VH with F41P, P111Y
VL: B1 VL with V29L, H34A, Q42E, G84A
notes: as for B1
B24: VH SEQ ID NO 626 / VL SEQ ID NO 390 (antibody, IgG4, V domains shown)
VH: B1 VH with F41P
VL: B1 VL with H34A, Q42E, G84A
notes: as for B1
B25: VH SEQ ID NO 626 / VL SEQ ID NO 454 (antibody, IgG4, V domains shown)
VH: B1 VH with F41P
VL: B1 VL with Q42E, G84A
notes: as for B1
B26: VH SEQ ID NO 626 / VL SEQ ID NO 366 (antibody, IgG4, V domains shown)
VH: B1 VH with F41P
VL: B1 VL with V29L, H34A, Q42E, G84A
notes: as for B1
B27: VH SEQ ID NO 634 / VL SEQ ID NO 438 (antibody, IgG4, V domains shown)
VH: B1 VH with F41P, P111Y
VL: B1 VL with H34A, F83V, G84A
notes: as for B1
B28: VH SEQ ID NO 626 / VL SEQ ID NO 342 (antibody, IgG4, V domains shown)
VH: B1 VH with F41P
VL: B1 VL with V29I, A51T, T69R, G84A, Q100A, I106L
notes: as for B1
B29: VH SEQ ID NO 626 / VL SEQ ID NO 502 (antibody, IgG4, V domains shown)
VH: B1 VH with F41P
VL: B1 VL with A51T, G84A
notes: as for B1
B30: VH SEQ ID NO 626 / VL SEQ ID NO 382 (antibody, IgG4, V domains shown)
VH: B1 VH with F41P
VL: B1 VL with V29L, Q42E, G84A
notes: as for B1
B31: VH SEQ ID NO 634 / VL SEQ ID NO 310 (antibody, IgG4, V domains shown)
VH: B1 VH with F41P, P111Y
VL: B1 VL with V29I, H34A, G84A
notes: as for B1
B32: VH SEQ ID NO 626 / VL SEQ ID NO 350 (antibody, IgG4, V domains shown)
VH: B1 VH with F41P
VL: B1 VL with V29I, A51T, G84A, Q100A, I106L
notes: as for B1
B33: VH SEQ ID NO 626 / VL SEQ ID NO 414 (antibody, IgG4, V domains shown)
VH: B1 VH with F41P
VL: B1 VL with H34A, G84A
notes: as for B1
B34: VH SEQ ID NO 634 / VL SEQ ID NO 334 (antibody, IgG4, V domains shown)
VH: B1 VH with F41P, P111Y
VL: B1 VL with V29I, G84A
notes: as for B1
B35: VH SEQ ID NO 634 / VL SEQ ID NO 318 (antibody, IgG4, V domains shown)
VH: B1 VH with F41P, P111Y
VL: B1 VL with V29I, Q42E, A51T, G84A
notes: as for B1
B36: VH SEQ ID NO 626 / VL SEQ ID NO 406 (antibody, IgG4, V domains shown)
VH: B1 VH with F41P
VL: B1 VL with H34A, G84A, Q100A
notes: as for B1
B37: VH SEQ ID NO 634 / VL SEQ ID NO 422 (antibody, IgG4, V domains shown)
VH: B1 VH with F41P, P111Y
VL: B1 VL with H34A, G84A, N90Q
notes: as for B1
B38: VH SEQ ID NO 626 / VL SEQ ID NO 358 (antibody, IgG4, V domains shown)
VH: B1 VH with F41P
VL: B1 VL with V29I, A51T, G84A
notes: as for B1
B39: VH SEQ ID NO 626 / VL SEQ ID NO 438 (antibody, IgG4, V domains shown)
VH: B1 VH with F41P
VL: B1 VL with H34A, F83V, G84A
notes: as for B1
B40: VH SEQ ID NO 634 / VL SEQ ID NO 374 (antibody, IgG4, V domains shown)
VH: B1 VH with F41P, P111Y
VL: B1 VL with V29L, H34A, A51T, G84A
notes: as for B1
B41: VH SEQ ID NO 618 / VL SEQ ID NO 494 (antibody, IgG4, V domains shown)
VH: B1 VH
VL: B1 VL with F83V, G84A
notes: as for B1
B42: VH SEQ ID NO 626 / VL SEQ ID NO 334 (antibody, IgG4, V domains shown)
VH: B1 VH with F41P
VL: B1 VL with V29I, G84A
notes: as for B1
B43: VH SEQ ID NO 634 / VL SEQ ID NO 326 (antibody, IgG4, V domains shown)
VH: B1 VH with F41P, P111Y
VL: B1 VL with V29I, Q42E, A51T, Q100A, I106L
notes: as for B1
B44: VH SEQ ID NO 634 / VL SEQ ID NO 414 (antibody, IgG4, V domains shown)
VH: B1 VH with F41P, P111Y
VL: B1 VL with H34A, G84A
notes: as for B1
B45: VH SEQ ID NO 626 / VL SEQ ID NO 430 (antibody, IgG4, V domains shown)
VH: B1 VH with F41P
VL: B1 VL with H34A
notes: as for B1

molecular target: T1, recombinant human activated Factor VII …; test: BLI (Fortebio)

Kd	Binder
1.2 nM	B1
7.7 nM	B2
0.71 nM	B3
1.8 nM	B4
1.2 nM	B5
820 nM	B6
1 nM	B7
4.3 nM	B8
880 nM	B9
0.82 nM	B10
1.4 nM	B11
1.2 nM	B12
9.2 nM	B13
8.2 nM	B14
1.6 nM	B15
0.79 nM	B16
1.2 nM	B17
4.2 nM	B18
2400 nM	B19
4.9 nM	B20
2.5 nM	B21
1.2 nM	B22
3.1 nM	B23

Kd	Binder
27 nM	B24
1.4 nM	B25
87 nM	B26
4.8 nM	B27
0.85 nM	B28
1.8 nM	B29
1.1 nM	B30
2.1 nM	B31
0.65 nM	B32
18 nM	B33
1 nM	B34
0.86 nM	B35
87 nM	B36
26 nM	B37
0.72 nM	B38
77 nM	B39
4.5 nM	B40
1.4 nM	B41
0.95 nM	B42
0.9 nM	B43
4.6 nM	B44
53 nM	B45

Source: US20220064329A1 (Novo Nordisk, published 2022)
